Paper PMC3903622, “Kinetics of Phosphomevalonate Kinase from Saccharomyces cerevisiae” (PLoS ONE, 2014)

Tests used:
purified protein [1] = substrate: C[C@@](O)(CCOP(=O)(O)O)CC(=O)O; assay: purified protein; assay type: biochemical, Saccharomyces cerevisiae; conditions: co-substrate ATP (0.1–8.0 mM range), 10 mM MgCl2, 100 mM KCl, 200 mM Tris pH 7.2, 30°C
purified protein [2] = substrate: Nc1ncnc2c1ncn2[C@@H]1O[C@H](COP(=O)(O)OP(=O)(O)OP(=O)(O)O)[C@@H](O)[C@H]1O; assay: purified protein; assay type: biochemical, Saccharomyces cerevisiae; conditions: co-substrate mevalonate-5-phosphate (0.2–10.0 mM range), 10 mM MgCl2, 100 mM KCl, 200 mM Tris pH 7.2, 30°C

B1: phosphomevalonate kinase (PMK) from S. cerevisiae; PMK-His (Saccharomyces cerevisiae S288C) (protein)
chain: MSELRAFSAPGKALLAGGYLVLDTKYEAFVVGLSARMHAVAHPYGSLQGSDKFEVRVKSKQFKDGEWLYHISPKSGFIPVSIGGSKNPFIEKVIANVFSYFKPNMDDYCNRNLFVIDIFSDDAYHSQEDSVTEHRGNRRLSFHSHRIEEVPKTGLGSSAGLVTVLTTALASFFVSDLENNVDKYREVIHNLAQVAHCQAQGKIGSGFDVAAAAYGSIRYRRFPPALISNLPDIGSATYGSKLAHLVDEEDWNITIKSNHLPSGLTLWMGDIKNGSETVKLVQKVKNWYDSHMPESLKIYTELDHANSRFMDGLSKLDRLHETHDDYSDQIFESLERNDCTCQKYPEITEVRDAVATIRRSFRKITKESGADIEPPVQTSLLDDCQTLKGVLTCLIPGAGGYDAIAVITKQDVDLRAQTANDKRFSKVQWLDVTQADWGVRKEKDPETYLDK
notes: E. coli codon-optimized gene in pET-52b+, C-terminal 6xHis tag (removal not mentioned), expressed in E. coli BL21(DE3), Ni-NTA purified
Purified protein [1]
  Km: 885 µM
Purified protein [2]
  Km: 98.3 µM
